To fix the notation:
B1: CK6-SET0207 (antibody, V domains shown)
VH: QVQLVQSGAAVKKPGESLKISCKGSGYRFTSYWIGWVRQMPGKGLEWMGIIYPGDSDTRYSPSFQGQVTISAGKSISTAYLQWSSLKASDTAMYYCARHGRGYNGYEGAFDIWGQGTMVTVSS
VL: AIQLTQSPSSLSASVGDRVTITCRASQGISSALAWYQQKPGKAPKLLIYDASSLESGVPSRFSGSGSGTDFTLTISSLQPEDFATYYCQQFNSYPLTFGGGTKVEIK
modifications: here or on the partner: SET0207 payload ('Non-cleavable natural') conjugated, Fc modification D265C H435A, DAR 2.0
B2: CK6 S239C-PNU (antibody, V domains shown)
VH: QVQLVQSGAAVKKPGESLKISCKGSGYRFTSYWIGWVRQMPGKGLEWMGIIYPGDSDTRYSPSFQGQVTISAGKSISTAYLQWSSLKASDTAMYYCARHGRGYNGYEGAFDIWGQGTMVTVSS
VL: AIQLTQSPSSLSASVGDRVTITCRASQGISSALAWYQQKPGKAPKLLIYDASSLESGVPSRFSGSGSGTDFTLTISSLQPEDFATYYCQQFNSYPLTFGGGTKVEIK
modifications: here or on the partner: PNU (DNA topoisomerase I/II inhibitor) conjugated, Fc modification S239C (printed S2390 in Table 4), DAR 1.4
B3: CK6 S239C-D4 (antibody, V domains shown)
VH: QVQLVQSGAAVKKPGESLKISCKGSGYRFTSYWIGWVRQMPGKGLEWMGIIYPGDSDTRYSPSFQGQVTISAGKSISTAYLQWSSLKASDTAMYYCARHGRGYNGYEGAFDIWGQGTMVTVSS
VL: AIQLTQSPSSLSASVGDRVTITCRASQGISSALAWYQQKPGKAPKLLIYDASSLESGVPSRFSGSGSGTDFTLTISSLQPEDFATYYCQQFNSYPLTFGGGTKVEIK
modifications: here or on the partner: calicheamicin (D4) conjugated, Fc modification S239C, DAR 1.72
B4: CK6 S239C-PBD (antibody, V domains shown)
VH: QVQLVQSGAAVKKPGESLKISCKGSGYRFTSYWIGWVRQMPGKGLEWMGIIYPGDSDTRYSPSFQGQVTISAGKSISTAYLQWSSLKASDTAMYYCARHGRGYNGYEGAFDIWGQGTMVTVSS
VL: AIQLTQSPSSLSASVGDRVTITCRASQGISSALAWYQQKPGKAPKLLIYDASSLESGVPSRFSGSGSGTDFTLTISSLQPEDFATYYCQQFNSYPLTFGGGTKVEIK
modifications: here or on the partner: PBD (DNA cross linker) conjugated, Fc modification S239C, DAR 1.7
B5: CK6 S239C-DM (antibody, V domains shown)
VH: QVQLVQSGAAVKKPGESLKISCKGSGYRFTSYWIGWVRQMPGKGLEWMGIIYPGDSDTRYSPSFQGQVTISAGKSISTAYLQWSSLKASDTAMYYCARHGRGYNGYEGAFDIWGQGTMVTVSS
VL: AIQLTQSPSSLSASVGDRVTITCRASQGISSALAWYQQKPGKAPKLLIYDASSLESGVPSRFSGSGSGTDFTLTISSLQPEDFATYYCQQFNSYPLTFGGGTKVEIK
modifications: here or on the partner: duocarmycin (DM) conjugated, Fc modification S239C, DAR 1.65

In this assay the target is CD117 on Kasumi-1 cells and on primary human CD34+ bone marrow cells (human), P10721. Briefly: cell-based or functional assay.
Sequence of CD117 on Kasumi-1 cells and on primary human CD34+ bone marrow cells (human), P10721 (P10721 26-976): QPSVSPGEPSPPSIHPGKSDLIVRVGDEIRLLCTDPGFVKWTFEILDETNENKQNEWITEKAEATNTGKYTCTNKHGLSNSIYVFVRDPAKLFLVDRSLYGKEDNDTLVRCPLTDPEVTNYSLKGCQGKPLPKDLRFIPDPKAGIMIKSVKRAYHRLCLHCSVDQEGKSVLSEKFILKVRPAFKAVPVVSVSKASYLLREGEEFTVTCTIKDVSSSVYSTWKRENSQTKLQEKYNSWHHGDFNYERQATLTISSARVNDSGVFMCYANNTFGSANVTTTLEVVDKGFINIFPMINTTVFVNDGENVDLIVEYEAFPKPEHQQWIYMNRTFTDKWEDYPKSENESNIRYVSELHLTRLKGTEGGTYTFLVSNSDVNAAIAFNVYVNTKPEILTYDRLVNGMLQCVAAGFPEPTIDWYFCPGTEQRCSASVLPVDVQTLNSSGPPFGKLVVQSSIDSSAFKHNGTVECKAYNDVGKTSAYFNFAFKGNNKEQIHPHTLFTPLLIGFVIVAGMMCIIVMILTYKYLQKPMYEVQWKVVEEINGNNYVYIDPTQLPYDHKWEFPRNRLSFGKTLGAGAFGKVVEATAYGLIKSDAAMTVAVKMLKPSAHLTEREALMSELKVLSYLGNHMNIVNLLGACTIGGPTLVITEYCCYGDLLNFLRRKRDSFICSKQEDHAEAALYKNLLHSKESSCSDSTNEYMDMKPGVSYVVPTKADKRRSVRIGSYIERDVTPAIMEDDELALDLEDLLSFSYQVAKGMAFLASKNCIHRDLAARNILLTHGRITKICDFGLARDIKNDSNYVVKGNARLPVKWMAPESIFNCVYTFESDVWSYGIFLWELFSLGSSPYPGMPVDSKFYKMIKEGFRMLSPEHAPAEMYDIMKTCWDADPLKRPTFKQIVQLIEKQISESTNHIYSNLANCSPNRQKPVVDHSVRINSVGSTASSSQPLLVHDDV
B1 showed a % Efficacy, in vitro Kasumi cell killing assay of 0% and a % Efficacy, in vitro hCD34 cell killing assay of 9.18%.
The corresponding values for B2 are 85.7% and 74.4%.
In the same order, the values of B3 are 0% and 52.3%.
In the same order, the values of B4 are 60.7% and 97.3%.
Regarding B5, the % Efficacy, in vitro Kasumi cell killing assay is 0% and the % Efficacy, in vitro hCD34 cell killing assay worked out at 66.2%.

Source of the values: patent US20220177577A1.
